In the supplement of paper PMC11246515:
± gives the standard deviation of the averaged measurements.

Assay: total protein half-life in vivo (active degradation + dilution); higher = more stable protein
[1] = E. coli NCM3722 delta-clpP delta-lon delta-hslV, growth: N-lim chemostat, doubling time 6 h
[2] = E. coli NCM3722 delta-clpP, growth: N-lim chemostat, doubling time 6 h
[3] = E. coli NCM3722 delta-hslV, growth: N-lim chemostat, doubling time 6 h
[4] = E. coli NCM3722 delta-lon, growth: N-lim chemostat, doubling time 6 h
[5] = E. coli NCM3722 delta-smpB, growth: N-lim chemostat, doubling time 6 h
[6] = wild type E. coli NCM3722, growth: C-lim chemostat, doubling time 3 h
[7] = wild type E. coli NCM3722, growth: C-lim chemostat, doubling time 6 h
[8] = wild type E. coli NCM3722, growth: C-lim chemostat, doubling time 12 h
[9] = wild type E. coli NCM3722, growth: N-lim chemostat, doubling time 6 h
[10] = wild type E. coli NCM3722, growth: N-lim chemostat, doubling time 12 h
[11] = wild type E. coli NCM3722, growth: P-lim chemostat, doubling time 6 h
[12] = wild type E. coli NCM3722, growth: P-lim chemostat, doubling time 12 h

Sequence | total protein half-life in vivo [1] [h] | total protein half-life in vivo [2] [h] | total protein half-life in vivo [3] [h] | total protein half-life in vivo [4] [h] | total protein half-life in vivo [5] [h] | total protein half-life in vivo [6] [h] | total protein half-life in vivo [7] [h] | total protein half-life in vivo [8] [h] | total protein half-life in vivo [9] [h] | total protein half-life in vivo [10] [h] | total protein half-life in vivo [11] [h] | total protein half-life in vivo [12] [h]
MVKKAIVTAMAVISLFTLMGCNNRAEVDTLSPAQAAELKPMPQSWRGVLPCADCEGIETSLFLEKDGTWVMNERYLGAREEPSSFASYGTWARTADKLVLTDSKGEKSYYRAKGDALEMLDREGNPIESQFNYTLEAAQSSLPMTPMTLRGMYFYMADAATFTDCATGKRFMVANNAELERSYLAARGHSEKPVLLSVEGHFTLEGNPDTGAPTKVLAPDTAGKFYPNQDCSSLGQ | 5.34 ± 0.088 | 5.68 ± 0.11 | 5.99 ± 0.23 | 6.787 ± 0.0084 | 5.976 ± 0.058 | 3.13 ± 0.2 | 6.4 ± 0.79 | 10.7 ± 0.25 | 6.083 ± 0.0085 | 11.5 ± 0.38 | 5.63 ± 0.41 | 
MVLQSTRWLALGYFTYFFSYGIFLPFWSVWLKGIGLTPETIGLLLGAGLVARFLGSLLIAPRVSDPSRLISALRVLALLTLLFAVAFWAGAHVAWLMLVMIGFNLFFSPLVPLTDALANTWQKQFPLDYGKVRLWGSVAFVIGSALTGKLVTMFDYRVILALLTLGVASMLLGFLIRPTIQPQGASRQQESTGWSAWLALVRQNWRFLACVCLLQGAHAAYYGFSAIYWQAAGYSASAVGYLWSLGVVAEVIIFALSNKLFRRCSARDMLLISAICGVVRWGIMGATTALPWLIVVQILHCGTFTVCHLAAMRYIAARQGSEVIRLQAVYSAVAMGGSIAIMTVFAGFLYQYLGHGVFWVMALVALPAMFLRPKVVPSC |  |  |  | 6.67 | 4.51 |  | 2.77 | 10.4 ± 0.17 |  |  |  | 
MVLWQSDLRVSWRAQWLSLLIHGLVAAVILLMPWPLSYTPLWMVLLSLVVFDCVRSQRRINARQGEIRLLMDGRLRWQGQEWSIVKAPWMIKSGMMLRLRSDGGKRQHLWLAADSMDEAEWRDLRRILLQQETQR | 6.03 ± 0.068 | 5.69 |  | 4.15 ± 0.083 |  | 3.47 | 5.64 ± 1.5 | 6.78 | 5.67 | 9.7 | 3.85 ± 0.56 | 7.57
MVRIYTLTLAPSLDSATITPQIYPEGKLRCTAPVFEPGGGGINVARAIAHLGGSATAIFPAGGATGEHLVSLLADENVPVATVEAKDWTRQNLHVHVEASGEQYRFVMPGAALNEDEFRQLEEQVLEIESGAILVISGSLPPGVKLEKLTQLISAAQKQGIRCIVDSSGEALSAALAIGNIELVKPNQKELSALVNRELTQPDDVRKAAQEIVNSGKAKRVVVSLGPQGALGVDSENCIQVVPPPVKSQSTVGAGDSMVGAMTLKLAENASLEEMVRFGVAAGSAATLNQGTRLCSHDDTQKIYAYLSR | 5.23 ± 0.52 | 4.483 ± 0.036 | 4.05 ± 0.088 | 4.74 ± 0.28 | 3.8 ± 0.18 | 3.32 ± 0.21 | 6.09 ± 0.64 | 10.7 ± 1.1 | 4.436 ± 0.02 | 6.92 ± 0.5 | 5.84 ± 0.18 | 11.864 ± 0.0075
MVRRLTSPRLEFEAAAIYEYPEHLRSFLNDLPTRPGVYLFHGESDTMPLYIGKSVNIRSRVLSHLRTPDEAAMLRQSRRISWICTAGEIGALLLEARLIKEQQPLFNKRLRRNRQLCALQLNEKRVDVVYAKEVDFSRAPNLFGLFANRRAALQALQTIADEQKLCYGLLGLEPLSRGRACFRSALKRCAGACCGKESHEEHALRLRQSLERLRVVCWPWQGAVALKEQHPEMTQYHIIQNWLWLGAVNSLEEATTLIRTPAGFDHDGYKILCKPLLSGNYEITELDPANDQRAS | 5.53 ± 1.1 |  | 1.43 |  | 0.89 | 1.06 |  | 1.93 | 1.6 ± 0.079 |  | 1.28 | 
MVSALYAVLSALLLMKFSFDVVRLRMQYRVAYGDGGFSELQSAIRIHGNAVEYIPIAIVLMLFMEMNGAETWMVHICGIVLLAGRLMHYYGFHHRLFRWRRSGMSATWCALLLMVLANLWYMPWELVFSLR | > 8 |  | > 8 | 6.32 | 7.19 ± 0.64 | 3.51 ± 0.12 | 7.27 | 13.7 |  | > 16 | 6.53 ± 0.12 | 13.1 ± 1.1
MVSKPFQRPFSLATRLTFFISLATIAAFFAFAWIMIHSVKVHFAEQDINDLKEISATLERVLNHPDETQARRLMTLEDIVSGYSNVLISLADSQGKTVYHSPGAPDIREFTRDAIPDKDAQGGEVYLLSGPTMMMPGHGHGHMEHSNWRMINLPVGPLVDGKPIYTLYIALSIDFHLHYINDLMNKLIMTASVISILIVFIVLLAVHKGHAPIRSVSRQIQNITSKDLDVRLDPQTVPIELEQLVLSFNHMIERIEDVFTRQSNFSADIAHEIRTPITNLITQTEIALSQSRSQKELEDVLYSNLEELTRMAKMVSDMLFLAQADNNQLIPEKKMLNLADEVGKVFDFFEALAEDRGVELRFVGDKCQVAGDPLMLRRALSNLLSNALRYTPTGETIVVRCQTVDHLVQVIVENPGTPIAPEHLPRLFDRFYRVDPSRQRKGEGSGIGLAIVKSIVVAHKGTVAVTSDARGTRFVITLPA | 6.87 ± 0.17 | 6.49 ± 0.093 | 5.99 ± 1.1 | 5.94 ± 0.29 | 5.79 ± 0.62 | 3.52 ± 0.32 | 6.15 ± 0.53 | 12.5 ± 1.1 | 5.98 ± 0.11 | 11.78 ± 0.088 | 6.28 ± 0.53 | 12.6 ± 0.38
MVSNASALGRNGVHDFILVRATAIVLTLYIIYMVGFFATSGELTYEVWIGFFASAFTKVFTLLALFSILIHAWIGMWQVLTDYVKPLALRLMLQLVIVVALVVYVIYGFVVVWGV [P0AC44] |  |  | 6.12 ± 0.19 |  |  | 3.03 ± 0.042 | 6.01 ± 0.4 | 12 ± 4.5 | 5.87 ± 0.39 |  |  | 12.5
MVSRKRNSVIYRFASLLLVLMLSACSALQGTPQPAPPVTDHPQEIRRDQTQGLQRIGSVSTMVRGSPDDALAEIKAKAVAAKADYYVVVMVDETIVTGQWYSQAILYRK | 5.47 ± 0.3 | 6.25 ± 1 | 7.06 | 6.07 ± 0.52 | 5.58 ± 0.19 | 3.29 ± 0.23 |  | 11.6 ± 1.4 | 6.049 ± 0.053 |  | 7.24 ± 1.1 | 14.8
